The values that follow are results of earlier work, collected in paper PMC10178479.

This data set has as its target Mint2 (Homo sapiens) (UniProt Q99767).
Chain of UniProt Q99767 (Q99767 whole entry): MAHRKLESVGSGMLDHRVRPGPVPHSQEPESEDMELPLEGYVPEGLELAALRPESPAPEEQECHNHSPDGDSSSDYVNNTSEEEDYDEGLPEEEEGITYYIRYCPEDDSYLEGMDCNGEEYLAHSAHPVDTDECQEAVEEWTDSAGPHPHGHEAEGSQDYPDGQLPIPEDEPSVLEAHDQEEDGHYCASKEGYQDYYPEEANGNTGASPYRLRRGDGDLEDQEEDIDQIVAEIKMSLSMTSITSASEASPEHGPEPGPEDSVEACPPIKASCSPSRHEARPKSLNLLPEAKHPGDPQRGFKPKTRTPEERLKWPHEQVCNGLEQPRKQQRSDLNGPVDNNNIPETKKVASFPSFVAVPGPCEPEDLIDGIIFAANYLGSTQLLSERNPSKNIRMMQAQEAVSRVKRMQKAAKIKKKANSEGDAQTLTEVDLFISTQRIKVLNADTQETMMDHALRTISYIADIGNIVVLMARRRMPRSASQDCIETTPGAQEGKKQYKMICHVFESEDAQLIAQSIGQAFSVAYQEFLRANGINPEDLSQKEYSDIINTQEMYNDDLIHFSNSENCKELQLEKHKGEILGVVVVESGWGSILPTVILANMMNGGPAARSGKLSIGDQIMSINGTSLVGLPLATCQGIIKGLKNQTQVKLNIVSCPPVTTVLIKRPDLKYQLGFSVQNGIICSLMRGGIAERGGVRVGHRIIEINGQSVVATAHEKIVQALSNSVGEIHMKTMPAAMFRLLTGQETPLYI

The Ki is a measure of affinity in units of concentration, obtained from inhibition or displacement. For the substance APP peptide (APPWT), the Ki is 4 µM.
